Reference: patent publication US20050276784A1

Columns and labels:
[1] = target: c-kit receptor of the W^v allele, on W^v/W^v mast cells (mouse) (UniProt P05532)
[2] = target: c-kit receptor (wild type), on mast cells and on NIH ψ2 cells expressing the c-kit cDNA (mouse) (UniProt P05532)

KL (c-kit ligand), soluble form purified from conditioned medium of Balb/3T3 fibroblasts (from UniProt P20826)
proliferation of mast cells (^3H-thymidine incorporation) (% of +/+ values) [1]: 10 | half maximal proliferation of +/+ mast cells (^3H-thymidine incorporation) (ng of protein in 0.2 ml) [2]: 0.5
